Measured values as given in patent publication US20250011410A1 (INVETX, published 2025).
Where a chain is given by its changes, count along the chain named. Numbers in names are those of the source. Where “and” joins values, the source holds several entries; their conditions need not be identical. Identical values can stand only once.

B1: canine NGF tagged at the C-terminus with the Flag tag (ligand)
chain: SSSHPVFHRGEFSVCDSVSVWVGDKTTATDIKGKEVMVLGEVNINNSVFKQYFFETKCRDPTPVDSGCRGIDSKHWNSYCTTTHTFVKALTMDGKQAAWRFIRIDTACVCVLSRKAGRRADYKDDDDK
notes: Baculovirus expression; also called feline NGF (processed form identical)
B2: felinized clone 101 (antibody, V domains shown)
VH: DVQLVESGGDLVKPGGSLRLTCVASGLSLTSSSMSWVRQAPGKGLQWVSTIYSNGGTYYTDSVKGRFTISKDNAENTLYLQMNNLKTEDTATYYCASIYYYDADYLHWYFDFWGQGALVTVSS
VL: EIQMTQSPTSLSASVGDRVTITCRASEGISNNLSWYQQTPGKAPKLLIYATSNLHSGVPSRFSGSGSGTDFTLTISSLQPEDFATYYCQQGYKWPLTFGGGTKLEIT
B3: felinized clone 101 (IgG) (antibody, V domains shown)
VH: B2 VH
VL: B2 VL
B4: SC-184_76 (antibody, IgG1a, V domains shown)
VH: B2 VH with S32D, I51L, Y52W, D102E
VL: B2 VL with S30A, Y92F
B5: SC-184_102 (antibody, IgG1a, V domains shown)
VH: B2 VH with S32N, Y52W, D102E, D104E
VL: B2 VL with E27K, T51Q
B6: SC-184_110 (antibody, IgG1a, V domains shown)
VH: B2 VH with S32A, D102E, D104E
VL: B2 VL with N31K, S52D, Y92W
B7: felinized clone 101 (antibody, V domains shown)
VH: B2 VH
VL: B2 VL
B8: SC-184_76 (antibody, IgG1a, V domains shown)
VH: B2 VH with S32D, I51L, Y52W, D102E
VL: B2 VL with S30A, Y92F
B9: SC-184_102 (antibody, IgG1a, V domains shown)
VH: B2 VH with S32N, Y52W, D102E, D104E
VL: B2 VL with E27K, T51Q
notes: also called SC-102
B10: SC-184_110-Arg (antibody, V domains shown)
VH: B2 VH with S32A, G55R, D102E, D104E
VL: B2 VL with N31K, S52D, Y92W
notes: SC-184_110 containing the G55R mutation in VH; feline antibody captured on an anti-feline chip
B11: SC-184_110 (antibody, IgG1a, V domains shown)
VH: B2 VH with S32A, D102E, D104E
VL: B2 VL with N31K, S52D, Y92W
notes: also called SC-110
B12: SC-184_76-Arg (antibody, V domains shown)
VH: B2 VH with S32D, I51L, Y52W, G55R, D102E
VL: B2 VL with S30A, Y92F
notes: SC-184_76 containing the G55R mutation in VH; feline antibody captured on an anti-feline chip
B13: AHF17602 (antibody, V domains shown)
VH: B2 VH with S35V, G55R
VL: B2 VL with S30A
notes: also called AIF17602
B14: SC-184_102-Arg (antibody, V domains shown)
VH: B2 VH with S32N, Y52W, G55R, D102E, D104E
VL: B2 VL with E27K, T51Q
notes: SC-184_102 containing the G55R mutation in VH; feline antibody captured on an anti-feline chip
B15: felinized clone 101 Fab-SASA (wild-type) (Fab, V domains shown, not shown: small tags and cut ends)
VH: B2 VH
VL: EIQMTQSPTSLSASVGDRVTITCRASEGISNNLSWYQQTPGKAPKLLIYATSNLHSGVPSRFSGSGSGTDFTLTISSLQPEDFATYYCQQGYKWPLTFGGGTKLEITR
B16: AHF17609 (Fab, V domains shown, not shown: small tags and cut ends)
VH: B2 VH with S35V, G55R
VL: B15 VL with S30A, N53I
B17: AHF17610 (Fab, V domains shown, not shown: small tags and cut ends)
VH: B2 VH with S35V, G55R
VL: B15 VL with S30A
B18: AHF17604 (Fab, V domains shown, not shown: small tags and cut ends)
VH: B2 VH with S35V, G55R, S97Q
VL: B15 VL with S30Q, N53I
notes: Fab-SASA, combinatorial library
B19: AHF17603 (Fab, V domains shown, not shown: small tags and cut ends)
VH: B2 VH with S35V, F112E
VL: B15 VL with S30A, N53I
B20: AHF17606 (Fab, V domains shown, not shown: small tags and cut ends)
VH: B2 VH with S35V, G55R
VL: B15 VL with S30A
B21: AHF17608 (Fab, V domains shown, not shown: small tags and cut ends)
VH: B2 VH with S35V, G55R
VL: B15 VL with S30A, N53V
B22: AHF17601 (Fab, V domains shown, not shown: small tags and cut ends)
VH: B2 VH with S35V, G55R, S97Q, F112E
VL: B15 VL with S30A
B23: AHF17605 (Fab, V domains shown, not shown: small tags and cut ends)
VH: B2 VH with S35V, S97Q
VL: B15 VL with S30A, N53I
notes: as for B18
B24: AHF17607 (Fab, V domains shown, not shown: small tags and cut ends)
VH: B2 VH with S35V, G55R, F112E
VL: B15 VL with N53I
B25: AHF17602 (Fab-SASA) (Fab, V domains shown, not shown: small tags and cut ends)
VH: B2 VH with S35V, G55R
VL: B15 VL with S30A

Target: T1, canine p75-Fc (canine; human)
T1 construct: extracellular domain; also called canine p75 in a dimer format; not shown: human IgG1 Fc, UniProtKB P01857
Test: SPR, p75-Fc captured on anti-human Fc chip, NGF analyte

| Binder | Kd |
| --- | --- |
| B1 | 3700 pM and 2700 pM |

Target: B1
Test: SPR, antibody captured on goat anti-cat IgG, single cycle kinetics, NGF analyte

| Binder | Kd | koff | kon |
| --- | --- | --- | --- |
| B2 | 7800 pM | 0.003 s⁻¹ | 380000 M⁻¹ s⁻¹ |

Target: T2, canine NGF tagged at the C-terminus with the Flag tag (canine, UniProt A0A8I3PYI3 122-241)
T2 construct: mature; Expressed with baculovirus technology; also called feline NGF (processed form identical)
Test: SPR, IgG amine-coupled to HC30M chip, NGF analyte

| Binder | Kd | koff | kon |
| --- | --- | --- | --- |
| B3 | 2100 pM | 0.00022 s⁻¹ | 110000 M⁻¹ s⁻¹ |
| B4 | 250 pM | 6.9e-05 s⁻¹ | 270000 M⁻¹ s⁻¹ |
| B5 |  |  | 210000 M⁻¹ s⁻¹ |
| B6 | 360 pM | 3.6e-05 s⁻¹ | 160000 M⁻¹ s⁻¹ |

Target: T3, canine NGF tagged at the C-terminus with the Flag tag (canine, UniProt A0A8I3PYI3 122-241)
T3 construct: mature; 'mature' rests on the words 'processed form'; also called feline NGF (processed form identical)
Test: SPR, Biacore T200; antibody captured on anti-feline CM5 chip, NGF as analyte; 1:1 model

| Binder | Kd | koff | kon |
| --- | --- | --- | --- |
| B7 | 1750 pM | 0.00138 s⁻¹ | 784000 M⁻¹ s⁻¹ |
| B8 | 472 pM | 0.000396 s⁻¹ | 838000 M⁻¹ s⁻¹ |
| B9 | 420 pM | 0.000198 s⁻¹ | 471000 M⁻¹ s⁻¹ |
| B10 | 142 pM | 5.48e-05 s⁻¹ | 387000 M⁻¹ s⁻¹ |
| B11 | 773 pM | 0.00038 s⁻¹ | 492000 M⁻¹ s⁻¹ |
| B12 | 154 pM | 9.01e-05 s⁻¹ | 585000 M⁻¹ s⁻¹ |
| B13 | 161 pM | 6.32e-05 s⁻¹ | 394000 M⁻¹ s⁻¹ |
| B14 | 129 pM | 4.43e-05 s⁻¹ | 343000 M⁻¹ s⁻¹ |

Target: T2, canine NGF tagged at the C-terminus …
Test: SPR off-rate assay, Fab-SASA on BSA chip

| Binder | Kd | Ratio (KD) WT/clones | koff | kon | Ratio (kd) WT/clones |
| --- | --- | --- | --- | --- | --- |
| B15 | 3150 pM and 3780 pM and 3470 pM | 0 | 0.00179 s⁻¹ and 0.00158 s⁻¹ and 0.00169 s⁻¹ | 569000 M⁻¹ s⁻¹ and 419000 M⁻¹ s⁻¹ and 494000 M⁻¹ s⁻¹ |  |
| B16 | ≤ 4.39 pM | 788 | ≤ 1e-06 s⁻¹ | 228000 M⁻¹ s⁻¹ | 1680 |
| B17 | ≤ 5.49 pM | 629 | ≤ 1e-06 s⁻¹ | 182000 M⁻¹ s⁻¹ | 1680 |
| B18 | 321 pM | 10.8 | 4.66e-05 s⁻¹ | 145000 M⁻¹ s⁻¹ | 36.2 |
| B19 | 664 pM | 5.2 | 0.000245 s⁻¹ | 368000 M⁻¹ s⁻¹ | 6.88 |
| B20 | 107 pM | 32.3 | 2.01e-05 s⁻¹ | 187000 M⁻¹ s⁻¹ | 83.8 |
| B21 | ≤ 4.39 pM | 788 | ≤ 1e-06 s⁻¹ | 228000 M⁻¹ s⁻¹ | 1680 |
| B22 | ≤ 3.44 pM | 1010 | ≤ 1e-06 s⁻¹ | 291000 M⁻¹ s⁻¹ | 1680 |
| B23 | 820 pM | 4.21 | 0.000207 s⁻¹ | 253000 M⁻¹ s⁻¹ | 8.14 |
| B24 | ≤ 4.42 pM | 781 | ≤ 1e-06 s⁻¹ | 226000 M⁻¹ s⁻¹ | 1680 |
| B25 | ≤ 4.76 pM | 726 | ≤ 1e-06 s⁻¹ | 210000 M⁻¹ s⁻¹ | 1680 |

Target: T2, canine NGF tagged at the C-terminus …
Test: SPR off-rate screen, Fab-SASA on BSA chip

| Binder | Kd | Ratio WT-kd/clone-kd | koff | kon |
| --- | --- | --- | --- | --- |
| B15 | 2620 pM and 2660 pM and 2690 pM | 1 | 0.000939 s⁻¹ and 0.000943 s⁻¹ and 0.000947 s⁻¹ | 359000 M⁻¹ s⁻¹ and 355000 M⁻¹ s⁻¹ and 351000 M⁻¹ s⁻¹ |

Target: T4, canine TrkA-Fc (canine; human, UniProt A0A8I3P078 33-423)
T4 construct: extracellular domain; also called Trk-Fc; canine TrkA in a dimer format; not shown: human IgG1 Fc, UniProtKB P01857
Test: SPR, TrkA-Fc captured on anti-human Fc chip, NGF analyte

T4 sequence (A0A8I3P078 entry or part of it): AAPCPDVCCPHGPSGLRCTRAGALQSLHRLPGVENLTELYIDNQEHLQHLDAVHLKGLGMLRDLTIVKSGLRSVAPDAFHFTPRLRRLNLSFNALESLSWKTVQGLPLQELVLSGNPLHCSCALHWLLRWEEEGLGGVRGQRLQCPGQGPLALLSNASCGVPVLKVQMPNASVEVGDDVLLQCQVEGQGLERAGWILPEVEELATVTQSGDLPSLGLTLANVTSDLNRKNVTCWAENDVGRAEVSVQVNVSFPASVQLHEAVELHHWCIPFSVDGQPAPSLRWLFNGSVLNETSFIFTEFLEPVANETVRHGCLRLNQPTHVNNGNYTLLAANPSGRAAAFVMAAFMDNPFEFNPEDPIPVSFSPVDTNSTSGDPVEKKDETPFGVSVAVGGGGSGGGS

| Binder | Kd | koff | kon |
| --- | --- | --- | --- |
| B1 | 13 pM and 6.6 pM | 0.00017 s⁻¹ and 0.00016 s⁻¹ | 1.3e+07 M⁻¹ s⁻¹ and 2.4e+07 M⁻¹ s⁻¹ |
